According to US20180305450A1 (AstraZeneca / MedImmune, published 2018):

Columns and labels:
[1] = target: T1, recombinant biotinylated human PAR2 extracellular domain (residues 1-75), N-terminal AviTag, C-terminal Flag … (human, UniProt P55085 26-75, biotin on the AviTag (enzymatic biotinylation)); assay: Biacore SPR 25 C, pH 7.4; pH 7.4; human; second determination
T1 construct: also called Bio-human-PAR2 ECD; human PAR2 ECD; not shown: N-terminal AviTag (Avidity LLC); C-terminal Flag and poly Histidine tags
T1 sequence (P55085 26-75): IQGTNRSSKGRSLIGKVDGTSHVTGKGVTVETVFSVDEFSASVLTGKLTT
Procedure: (§1) The experiments were carried out using recombinant human, rat and cynomolgus PAR2 with an N-terminal Avi tag and C-terminal Flag-His tags.
(§2) Streptavidin was covalently immobilised to a C1 chip surface using standard amine coupling techniques at a concentration of 4 μg/ml in 10 mM Sodium acetate pH 4.5. A final streptavidin surface of approximately 30-100 RUs was achieved. Recombinant biotinylated PAR2 species (produced in-house) were titrated onto the streptavidin chip surface at 4 μg/ml in HBS-EP+ buffer to enable Fab binding at saturation (Rₘₐₓ). This low level of analyte binding ensured minimal mass transport effects.
(§3) The anti-PAR2 Fabs were serially diluted (0.39 nM-25 nM) in HBS-EP+ buffer pH 7.4 or MES-BS-EP+ pH 6.0 buffer or in MES-BS-EP+ pH 5.6 buffer and flowed over the chip at 50 μl/min, with 3 minutes association and up to 30 minutes dissociation. Multiple buffer-only injections were made under the same conditions to allow for double reference subtraction of the final sensorgram sets, which were analysed using the BiaEval software (version 2.0.1). The chip surface was fully regenerated with pulses of 4 M MgCl₂.

[2] = target: T1, recombinant biotinylated human PAR2 …; assay: Biacore SPR 25 C, pH 6.0
Procedure: as §1, §2, §3

[3] = target: T2, recombinant biotinylated rat PAR2 extracellular residues 1-75, N-terminal AviTag, C-terminal Flag and poly … (rat, UniProt Q63645 26-75, not fully specified; biotin on the AviTag (enzymatic biotinylation)); assay: Biacore SPR 25 C, pH 6.0
T2 construct: range 1-75; not shown: N-terminal AviTag (Avidity LLC); C-terminal Flag and poly Histidine tags
T2 chain (looked up): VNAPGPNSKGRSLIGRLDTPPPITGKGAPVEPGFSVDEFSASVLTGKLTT
Procedure: as §1, §2, §3

[4] = target: T1, recombinant biotinylated human PAR2 …; assay: Biacore SPR 25 C, pH 5.6
Procedure: as §1, §2, §3

[5] = target: T3, recombinant biotinylated cynomolgus (Macaca fascicularis) PAR2 extracellular residues 1-75, N-terminal … (cynomolgus (Macaca fascicularis)); assay: Biacore SPR 25 C, pH 5.6
T3 construct: range 1-75; also called cynomolgus PAR2
Procedure: as §1, §2, §3

[6] = target: T1, recombinant biotinylated human PAR2 …; assay: Biacore SPR 25 C, pH 7.4 (second row)
Procedure: as §1, §2, §3

[7] = target: T3, recombinant biotinylated cynomolgus …; assay: Biacore SPR 25 C, pH 7.4 (second row)
Procedure: as §1, §2, §3

[8] = target: T1, recombinant biotinylated human PAR2 …; assay: Biacore SPR 25 C, pH 6.0 (second row)
Procedure: as §1, §2, §3

[9] = target: T3, recombinant biotinylated cynomolgus …; assay: Biacore SPR 25 C, pH 6.0 (second row)
Procedure: as §1, §2, §3

[10] = target: T1, recombinant biotinylated human PAR2 …; assay: Biacore SPR 25 C, pH 7.4
Procedure: as §1, §2, §3

[11] = target: T3, recombinant biotinylated cynomolgus …; assay: Biacore SPR 25 C, pH 7.4
Procedure: as §1, §2, §3

[12] = target: T1, recombinant biotinylated human PAR2 …; assay: Biacore SPR 25 C, pH 6.0; remark: listed apart in the source
Procedure: as §1, §2, §3

[13] = target: T3, recombinant biotinylated cynomolgus …; assay: Biacore SPR 25 C, pH 6.0
Procedure: as §1, §2, §3

[14] = target: T1, recombinant biotinylated human PAR2 …; assay: Biacore SPR 25 C, pH 7.4; remark: listed apart in the source
Procedure: as §1, §2, §3

[15] = target: T2, recombinant biotinylated rat PAR2 …; assay: Biacore SPR 25 C, pH 7.4
Procedure: as §1, §2, §3

B1: PaB670129 Fab (Fab, V domains shown)
VH: EVQLLESGGGLVQPGGSLRLSCAASGFTFSSYAMNWVRQAPGKGLEWVSTISYHGSHISYHDSVHHRFTISRDNSKNTLYLQMNSLRAEDTAVYYCARIHHDPMDVWGQGTLVTVSS
VL: SIELTQPPSVSVSPGQTASITCSGDNLGKKYVQWYQQKPGQSPVLVIYDDSNRPSGIPERFSGSNSGNTATLTISGTQAMDEADYYCQTWDGNPTTGETNVFGGGTKLTVL
notes: Fab; also called ZZ1RUE-F02
**Q.** Which results are given for B1?
**A.** kon [1]: 6.81e+06 M⁻¹ s⁻¹; Kd [2]: 34.8 nM; koff [2]: 0.0554 s⁻¹; kon [2]: 1.59e+06 M⁻¹ s⁻¹; Kd [3]: 57.9 nM; koff [3]: 0.0841 s⁻¹; kon [3]: 1.45e+06 M⁻¹ s⁻¹; Kd [4]: 84.5 nM; koff [4]: 0.112 s⁻¹; kon [4]: 1.33e+06 M⁻¹ s⁻¹; Kd [5]: 37.8 nM; koff [5]: 0.139 s⁻¹; kon [5]: 3.66e+06 M⁻¹ s⁻¹; Kd [6]: 0.778 nM; koff [6]: 0.0053 s⁻¹; Kd [7]: 0.335 nM; koff [7]: 0.00221 s⁻¹; kon [7]: 6.59e+06 M⁻¹ s⁻¹; Kd [8]: 33.5 nM; koff [8]: 0.109 s⁻¹; kon [8]: 3.26e+06 M⁻¹ s⁻¹; Kd [9]: 13.6 nM; koff [9]: 0.0236 s⁻¹; kon [9]: 1.74e+06 M⁻¹ s⁻¹; Kd [10]: 0.748 nM; koff [10]: 0.00534 s⁻¹; kon [10]: 7.14e+06 M⁻¹ s⁻¹; Kd [11]: 0.333 nM; koff [11]: 0.00223 s⁻¹; kon [11]: 6.67e+06 M⁻¹ s⁻¹; Kd [12]: 36.9 nM; koff [12]: 0.0576 s⁻¹; kon [12]: 1.56e+06 M⁻¹ s⁻¹; Kd [13]: 12.8 nM; koff [13]: 0.0275 s⁻¹; kon [13]: 2.14e+06 M⁻¹ s⁻¹; Kd [14]: 0.614 nM; koff [14]: 0.00504 s⁻¹; kon [14]: 8.2e+06 M⁻¹ s⁻¹; Kd [15]: 2.98 nM; koff [15]: 0.0263 s⁻¹; kon [15]: 8.82e+06 M⁻¹ s⁻¹
